The assay concerns the target SARS-CoV-2 Wuhan-Hu-1 RBD (SARS-CoV-2 Wuhan-Hu-1, UniProt P0DTC2). In words: BLI. The settings on record: both partners purified.

B1: V042 (antibody, V domains shown)
VH: QLQLQESGPGLVKPSETLSLTCTVSGGSISSSTNYWGWIRQPPGKGLEWIGSIDYSGSTYYNPSLKSRVTMSVDTSKNQFSLKLSSVTATDTAMYYCARHVIDDSRGYYPAALDHWSQGTLVTVSS
VL: EIVLTQSPATLSLSPGERATLSCRASQSVNNYLAWYQQKPGQAPRLLIYDASNRATGVPARFSGSGSGTDFTLTISSLEPEDFAVYFCQQRSNWPPMYTFGQGTKLEIK
notes: IgG; donor BRA15; source: recombinant monoclonal IgG, produced and purified as previously described
On to B1, for which binding was put at a Kd of 32.5 nM.

B2: V044 (antibody, V domains shown)
VH: QVQLVQSGAEVKKPGASVKVSCKASGYTFTSYDINWVRQATGQGLEWMGWMNPNSGYAGYTQKFQGRITMTRNTSISTAYMELSSLRSEDTAVYFCARISSPTRLDPWGQGTLVTVSS
VL: NFMLTQPHSVSESPGKTVTISCSRSRGSIASSFVQWYQQRPGSSPTTVIYDDNQRPSGVPDRFSGSIDSSSNSASLTISGLKTEDEADYYCQSYDSISWVFGGGTKLTVL
notes: as for B1
Molecule B2 came in with a Kd of 5.25 nM.

B3: V038 (antibody, V domains shown)
VH: QVQLVQSGAEVKKPGASVKVSCKASGYTFTGYYVHWVRQAPGQGLEWMGWINPNSGGTNFAQRFQGRVTMTRDTSISTAYMELSRLRSDDTAVYYCARGITVYGVAPDAFDIWGQGTMVTVSS
VL: DIQMTQSPSSLSASVGDRVTITCQASQDISNYLNWYQQKPGKAPKVLIYDASNLEPGVPSRFSGSGSGTDFTFTISSLQPEDIATYYCQQYDNLITFGQGTRLEIK
notes: as for B1
Molecule B3 had a dissociation constant (Kd) of 5.73 nM.

B4: V043 (antibody, V domains shown)
VH: QLQLQESGPGLVKPSETLSLTCTVSGGSISSNNYYWGWIRQPPGKGLECIGTIYYSGNTYYNPSLKSRVTISVDTSKNQFSLKLGSVTAADTAVYYCARQQWLRDAFHIWGQGTMVTVSS
VL: NFMLTQPHSVSESPGKTVTISCTGSSGSIASNYVQWYQQRPGSAPTIVIYEDNQRPSGVPDRFSGSIDSSSNSASLTISGLKTEDEADYYCQSYDSNIHVVFGGGTKLTVL
notes: as for B1
In turn, B4 showed a dissociation constant (Kd) of 4.46 nM.

B5: V037 (antibody, V domains shown)
VH: EVQLVESGGGLVQPGGSLRLSCAASEVIVSSNYMSWVRQAPGKGLEWVSVLYSGGSTFYADSVKGRFTISRDNSKNTLYLQMNSLRAEDTAVYYCARDLGPMGAFDIWGQGTMVTVSS
VL: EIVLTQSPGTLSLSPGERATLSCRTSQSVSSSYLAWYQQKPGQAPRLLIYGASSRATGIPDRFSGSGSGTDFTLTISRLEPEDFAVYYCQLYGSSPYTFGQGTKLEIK
notes: as for B1
As to B5, the Kd stood at 6.9 nM.

B6: V032 (antibody, V domains shown)
VH: QVQLVESGGGVVQPGRSLRLSCAASGFTFSSYGMHWVRQAPGKGLEWVAVISYDGSNKYYADSVKGRFTISRDNSKNTLYLQMNSLRAEDTAVYYCAKVSGPYCSSTSCYTGYWDYWGQGTLVTVSS
VL: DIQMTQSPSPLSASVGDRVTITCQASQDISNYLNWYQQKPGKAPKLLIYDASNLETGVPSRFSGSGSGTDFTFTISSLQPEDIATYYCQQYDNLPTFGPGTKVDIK
notes: IgG; donor BRA14; source: recombinant monoclonal IgG, produced and purified as previously described
As to B6, the dissociation constant (Kd) came out at 8.3 nM. This Kd and that of the molecule before are within 1.5-fold of each other.

B7: V033 (antibody, V domains shown)
VH: QVQLVQSGAEVKKPGASVKVSCKASGYTFTSYGISWVRQAPGQGLEWMGWISAYNGNTNYAQKLQGRVTMTTDTSTSTAYMELRSLRSDDTAVYYCARGRFCSSTSCYRAAPNYYYYYMDVWGKGTTVTVSS
VL: NFMLTQPHSVSESPGKTVTISCTRSSGSIASNYVQWYQQRPGSAPTTVIYEDNQRPSGVPDRFSGSIDSSSNSASLTISGLKTEDEADYYCQSYDSSNPYWVFGGGTKLTVL
notes: as for B6
As for B7, the dissociation constant (Kd) was determined as 4.68 nM.

B8: V039 (antibody, V domains shown)
VH: QVQLQESGPGLVKPSQTLSLTCTVSGGSISSGSYYWSWIRQPAGKGLEWIGRIYTSGSTNYNPSLKSRVTISVDTSKNQFSLKLSSVTAADTAVYYCARADYSDYDNYYFDYWGQGTLVTVSS
VL: NFMLTQPHSVSESPGKTVAISCTRSSGSIASNYVHWYQQRPGSSPTTVIYDDNQRPSGVPDRFSGSIDSSSNSASLTISGLKTEDEADYYCQSYDSSNHNWVFGGGTKLTVL
notes: as for B1
For the molecule B8, the Kd amounted to 1.09 nM.

B9: V004 (antibody, V domains shown)
VH: QVQLQESGPGLVKPSQTLSLTCTVSGGSISSGSYYWSWIRQPAGKGLEWIGRIYTSGSTNYNPSLKSRVTISVDTSKNQFSLKLSSVTAADTAVYYCARDTTDDYYVIWGQGTLVTVSS
VL: DIQMTQSPSTLSASVGDRVTITCRASQSIRSWLAWYQQKPGKAPKLLIYDASSLESGVPSRFSGSGSGTEFTLTISSLQPDDFATYYCQQYNTHFRTFGQGTKVEIK
notes: IgG; donor BRA13; source: recombinant monoclonal IgG, produced and purified as previously described
Regarding B9, the Kd was 3.59 nM.

The values are drawn from publication PMC9270183 (The Journal of Experimental Medicine, 2022).
